# Source: patent publication US20160333101A1 (GENOR BIOPHARMA, published 2016)
# Positions count from the first letter of the chain named.
# B1: G12 (antibody, human IgG2, kappa, V domains shown)
# VH: QVQLVQSGAELKKPGASVKLSCKASGYTFTTYWLQWVRQAPGQGLEWMGAIYPGPGNTKYTQKFKDRFTITADTSKSTAYMQLNSLKSEDSAVYYCARRGSRRGIAYWGQGTLVTVSA
# VL: NIVLTQSPASLSVSLGQRATISCRASESVDSYGRSFMHWYQQRPGQAPKLLIYLASNLESGVPARFSGSGSRTDFTLTISSVEAEDEATYYCQQDNEDPYTFGGGTKLEIKG
# B2: G14 (antibody, human IgG2, kappa, V domains shown)
# VH: B1 VH with L11V, L20V, F68V, T74E, K76T, Q82E, N84S, K87R, S91T
# VL: DIVMTQSPDSLAVSLGERATINCRASESVDSYGRSFMHWYQQKPGQAPRLLIYLASNLESGVPSRFSGSGSGTDFTLTINSLEAEDAATYYCQQDNEDPYTFGGGTKLEIKG
# B3: G4 (antibody, human IgG2, kappa, V domains shown)
# VH: B1 VH with T74K
# VL: B1 VL
# B4: G10 (antibody, human IgG2, kappa, V domains shown)
# VH: B1 VH
# VL: B1 VL with K49R
# B5: G8 (antibody, human IgG2, kappa, V domains shown)
# VH: B1 VH with K12V, K13Q, A40T, F68V, K76T, K87R
# VL: B1 VL
# B6: pFL249-H16u (scFv)
# scFv: QVQLVQSGAELKKPGASVKLSCKASGYTFTTYWLQWVRQAPGQGLEWMGAIYPGPGNTKYTQKFKDRFTITADTSKSTAYMQLNSLKSEDSAVYYCARRGSRRGIAYWGQGTLVTVSAASSGGGGSGGGGSGGGGSSNIVLTQSPASLAVSLGQRATISCRASESVDSYGRSFMHWYQQRPGQPPTLLIYLASNLESGVPVRFSGSGSRTDFTLTIDPVEADDAATYYCQQDNEDPYTFGGGTKLEIK
# notes: scFv in IPTG-induced E. coli supernatant, screened by ELISA; also called H16u scFv clone of the VH library; not shown: c-myc tag and his tag of vector pFL249
# B7: pFL249-H114 (scFv)
# scFv: B6 scFv with K12V, K13Q, A40T, F68V, K76T, K87R
# notes: scFv in IPTG-induced E. coli supernatant, screened by ELISA; also called H114 scFv clone of the VH library; not shown: c-myc tag and his tag of vector pFL249
# B8: pFL249-H16 (scFv)
# scFv: B6 scFv with T74K
# notes: scFv in IPTG-induced E. coli supernatant, screened by ELISA; also called H16 scFv clone of the VH library; not shown: c-myc tag and his tag of vector pFL249
# B9: G15 (antibody, human IgG2, kappa, V domains shown)
# VH: B1 VH with L11V, L20V, F68V, T74E, K76T, Q82E, N84S, K87R, S91T
# VL: B1 VL with K49R
# B10: 114-6.6.29 (antibody, V domains shown)
# VH: DVKLVESGGGLVKPGGSLKLSCAASGFTFSSYTMSWVRQTPEKRLEWVATISSGGSYTYYPDSVKGRFTISRDNAKNTLYLQMSSLKSEDTAMYYCTRDWDYYGTTYVGGYAMDYWGQGTSVTVSS
# VL: DVLMTQTPLSLPVSLGDQASISCRSSQSIVHSNGNTYLEWYLQKPGQSPKLLIYKVSNRFSGVPDRFSGSGSGTDFTLKISRVEAEDLGVYYCFQGSHVPWTFGGGTKLEIK
# B11: 114-7.38.48 (antibody, V domains shown)
# VH: DVQLQESGPDLVKPSQSLSLTCTVTGYSITSAYSWHWIRQFPGNKLEWMGYIHFSGVTNYNPSLKSRISITRDASKNQFFLQLSSVTTEDTATYYCATRRETGFTYWGQGTLVTVSA
# VL: DIVLTQSPATLSVTPGDSVSLSCRASQSISKNLHWYQQKSHESPRLLIKYASQSISGIPSRFSGSGSGTDFTLSINSVETEDFGIYFCQQINSWPLTFGAGTKLELK
# B12: 114-7.19.12 (antibody, V domains shown)
# VH: QVQLQQSGAELASPGASVKLSCKASGYTFTTYWLQWVKQRPGQGLEWIGAIYPGPGNTKYTQKFKDKATLTADKSASTAYMQLNSLTSEDSAVYYCARRGSRRGIAYWGQGTLVTVSA
# VL: NIVLTQSPASLAVSLGQRATISCRASESVDSYGRSFMHWYQQRPGQPPTLLIYLASNLESGVPVRFSGSGSRTDFTLTIDPVEADDAATYYCQQDNEDPYTFGGGTKLEIK
# B13: 114-7.37.26 (antibody, V domains shown)
# VH: B12 VH with A24T, N84S
# VL: B12 VL with V64A
# B14: 114-5.7.14 (antibody, V domains shown)
# VH: EVQLQQSGAELVKPGASVKLSCTASGFKIKDTYMHWVRQRPEQGLEWIGRIDSANGNIKYDPKFQGKATITADTSSKTAYLHLSSLTFEDTAVYYCSRPKSNYDFWLPYWGQGTLVTVSA
# VL: DIQMTQTTSSLSASLGDRVTISCSASQGISNYLNWYQQKPDGTVKLLIYYTSSLHSGVPSRFSGSGSGTDYSLTISNLEPEDIATYYCQQYSKLPLTFGAGTKLELK
# B15: 114-2.222 (antibody, V domains shown)
# VH: EVQLQQSGAELVKPGASVKLSCTTSGFNIKATYIHWVQQRPEQGLEWIGRIDPANGNTKYDSKFQGKATITADTSSNTAYLQLSSLTSEDTAVYFCARSLHYYVFFDYWGQGTTLTVSS
# VL: DIQMTQTTSSLSASLGDRVTISCSASQGISNYLNWYQQKPDGTVKLLIYSTSSLHSGVPSRFSGSGSGTDYSLTISSLEPEDIATYYCQQYSKLPLTFGAGTKLELKR
# B16: 114-5.9.4 (antibody, V domains shown)
# VH: EVQLQQSGAELVKPGASVKLSCTASGFNLKGTYIHWVKQRPGQGLEWIGRIDPANANTKYDPKFQGKATIRTDTSSNTAYLQLSSLTSEDTAVYFCSSPSGHYDVWFAYWGQGTLVTVSP
# VL: B15 VL with T7P, R18T, G28D, V44L, S50Y, S77N, Y91F
# B17: 114-2.402 (antibody, V domains shown)
# VH: EVQLQQSGTELVKPGASVKLSCTLFGFNIKATYMHWVRQRPEQGLEWIGRIDPPNGNTKYDPKFQDKATIKVDTSSNTAYLQLSSLTSEDTAVYYCAREFNRYDVWLAYWGQGTLVTVSA
# VL: B15 VL with I29V, S77N, I83V, L96F, A100S, L106I
# B18: pFL249-L10u (scFv)
# scFv: QVQLQQSGAELASPGASVKLSCKASGYTFTTYWLQWVKQRPGQGLEWIGAIYPGPGNTKYTQKFKDKATLTADKSASTAYMQLNSLTSEDSAVYYCARRGSRRGIAYWGQGTLVTVSAASSGGGGSGGGGSGGGGSSNIVLTQSPASLSVSLGQRATISCRASESVDSYGRSFMHWYQQRPGQAPKLLIYLASNLESGVPARFSGSGSRTDFTLTISSVEAEDEATYYCQQDNEDPYTFGGGTKLEIK
# notes: scFv in IPTG-induced E. coli supernatant, screened by ELISA; also called L10u scFv clone of the VL library; not shown: c-myc tag and his tag of vector pFL249
# B19: pFL249-L37u (scFv)
# scFv: B18 scFv with R180K, A201S, S218R, E224A
# notes: scFv in IPTG-induced E. coli supernatant, screened by ELISA; also called L37u scFv clone of the VL library; not shown: c-myc tag and his tag of vector pFL249
# B20: pFL249-L37 (scFv)
# scFv: B18 scFv with R180K, A201S, S218A, E224A
# notes: scFv in IPTG-induced E. coli supernatant, screened by ELISA; also called L37 scFv clone of the VL library; not shown: c-myc tag and his tag of vector pFL249
# B21: pFL249-L10 (scFv)
# scFv: B18 scFv with K186R
# notes: scFv in IPTG-induced E. coli supernatant, screened by ELISA; also called L10 scFv clone of the VL library; not shown: c-myc tag and his tag of vector pFL249
# Target: T1, recombinant human RANKL (human, UniProt O14788 136-317)
# T1 sequence: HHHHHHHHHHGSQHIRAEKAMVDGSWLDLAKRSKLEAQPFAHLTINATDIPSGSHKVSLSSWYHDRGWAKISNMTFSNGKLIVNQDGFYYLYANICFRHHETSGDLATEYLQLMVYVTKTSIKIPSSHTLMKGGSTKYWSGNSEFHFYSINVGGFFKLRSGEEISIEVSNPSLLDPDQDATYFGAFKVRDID
# Test: cell-based or functional assay
row,Binder,"IC50 (ng/ml) in RAW264.7 cells, osteoclast differentiation induced by RANKL [ng/mL]"
1,B1,~1060
2,B2,~517
3,B3,~1080
4,B4,695
5,B5,~573

# Target: T1, recombinant human RANKL
# Test: ELISA, scFv supernatant on coated hRANKL, anti-c-myc-HRP; threshold of the clones sent for sequencing
# Protocol: The plates are washed three times with PBST (containing 0.05% Tween 20). The plates are closed with blocking solution (PBS solution containing 2% (WN) of BSA) for 1˜1.5 hours at room temperature. […] The closed microtiter plate is incubated for 2 hours at room temperature, washed three times with PBST. […] After the microtiter plate is washed six times with PBST, TMB substrate (purchased from Cell Signaling Technology, Cat. NO.7004) is added, and the samples are colored at room temperature for 10 minutes, 50 μl 2 M HCl is added in each well to terminate the color, and OD450 nm reading is detected using the M5 equipment.
# If OD450>0.4, it is considered as a positive coloration.
row,Binder,OD450
1,B6,1.2
2,B7,1.2
3,B8,1.2

# Target: T1, recombinant human RANKL
# Test: cell-based or functional assay
# Remark: another data set of the same source
row,Binder,IC50 for inhibiting hRANKL induced RAW264.7 cell differentiation [µg/mL]
1,B2,0.247
2,B9,0.257
3,B5,0.329

# Target: T1, recombinant human RANKL
# Test: cell-based or functional assay
# Remark: another data set of the same source
row,Binder,"EC50 value (ng/ml), inhibiting the cellular differentiation of RAW264.7 induced by human RANKL [ng/mL]"
1,B10,799
2,B11,585
3,B12,267
4,B13,470
5,B14,315
6,B15,311
7,B16,340
8,B17,396

# Target: T1, recombinant human RANKL
# Test: ELISA, scFv supernatant on coated hRANKL, anti-c-myc-HRP
# Protocol: For VH, VL libraries, 5×96 clones selected randomly from SOBAG cloning plates obtained in the third round and the fourth round are vaccinated on 96-deep-well plates respectively, 400 μl 2×YT-AG medium is contained in each well, the bacterial liquid is cultivated with shaking, at 30° C., 200 rpm overnight. The next day, the bacterial liquid on the deep-well plate is transferred by 1:50 to a new 96-deep-well plate containing 400 μl 2×YT-AG fresh medium. The bacterial liquid is cultivated with shaking at 37° C., 200 rpm until OD600 is about 0.8 (for about 3 hours). The bacterial is collected through 1500 g centrifugation for 10 minutes, the supernatant is removed, and the bacterial is resuspended with 400 μl of sterile fresh 2×YT-AI (I refers to IPTG, with a final concentration of […]) culture medium, the suspension is cultivated with shaking at 30° C., 200 rpm overnight (that is, the expression of scFv is induced overnight). The expressed inductively scFv supernatant on the deep-well plate is centrifuged at 3000 g for 20 min, 300 μl supernatant is transferred to a clean 96-well cell plate for backup.
# The plates are washed three times with PBST (containing 0.05% Tween 20). The plates are closed with blocking solution (PBS solution containing 2% (WN) of BSA) for 1˜1.5 hours at room temperature. […] The closed microtiter plate is incubated for 2 hours at room temperature, washed three times with PBST.
row,Binder,binding result
1,B18,binds
2,B19,binds
3,B20,binds
4,B21,binds
